Experimental findings from patent US9845340B2, “Peptides that specifically bind HGF receptor (cMet) and uses thereof” (Dyax Corp., priority 2003, dated 2017) are described below.

The target of one assay is cMet-Fc fusion protein (Homo sapiens, UniProt P08581). As to the kind of experiment: Protein phage ELISA: peptide-displaying phage binding to soluble cMet-Fc versus TRAIL-Fc. To be noted: phage isolate; cMet-Fc vs. TRAIL-Fc. The method in brief:
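Plates coated with 0.5 μg/mL cMet-Fc or, as background, TRAIL-Fc, then blocked with 3% BSA in PBST. Peptide-displaying phage bound 2 h at room temperature. Detection with HRP-anti-M13 antibody.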
On the technique in general: An ELISA detects its analyte on a solid surface through an enzyme-linked reagent.

Assay [1] has as its target T1, 3T3 cells that over-express human cMet (Homo sapiens, UniProt P08581).
T1 construct: expressed in transfected cells; host or cells: 3T3 cells
The assay is described as follows: Whole cell ELISA of peptide-displaying phage. The class given is cell-based. The following applies: phage isolate; 3T3 cells expressing human cMet vs. non-expressing 3T3 cells. Put shortly:
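3T3 cells over-expressing human cMet seeded 10^5/well, pelleted and fixed with 0.1% glutaraldehyde 12 min at 37 °C. Blocked peptide-displaying phage bound 1 h at room temperature; after PBST wash, bound phage detected with HRP-conjugated anti-M13 antibody.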

T1 sequence (P08581 25-1390): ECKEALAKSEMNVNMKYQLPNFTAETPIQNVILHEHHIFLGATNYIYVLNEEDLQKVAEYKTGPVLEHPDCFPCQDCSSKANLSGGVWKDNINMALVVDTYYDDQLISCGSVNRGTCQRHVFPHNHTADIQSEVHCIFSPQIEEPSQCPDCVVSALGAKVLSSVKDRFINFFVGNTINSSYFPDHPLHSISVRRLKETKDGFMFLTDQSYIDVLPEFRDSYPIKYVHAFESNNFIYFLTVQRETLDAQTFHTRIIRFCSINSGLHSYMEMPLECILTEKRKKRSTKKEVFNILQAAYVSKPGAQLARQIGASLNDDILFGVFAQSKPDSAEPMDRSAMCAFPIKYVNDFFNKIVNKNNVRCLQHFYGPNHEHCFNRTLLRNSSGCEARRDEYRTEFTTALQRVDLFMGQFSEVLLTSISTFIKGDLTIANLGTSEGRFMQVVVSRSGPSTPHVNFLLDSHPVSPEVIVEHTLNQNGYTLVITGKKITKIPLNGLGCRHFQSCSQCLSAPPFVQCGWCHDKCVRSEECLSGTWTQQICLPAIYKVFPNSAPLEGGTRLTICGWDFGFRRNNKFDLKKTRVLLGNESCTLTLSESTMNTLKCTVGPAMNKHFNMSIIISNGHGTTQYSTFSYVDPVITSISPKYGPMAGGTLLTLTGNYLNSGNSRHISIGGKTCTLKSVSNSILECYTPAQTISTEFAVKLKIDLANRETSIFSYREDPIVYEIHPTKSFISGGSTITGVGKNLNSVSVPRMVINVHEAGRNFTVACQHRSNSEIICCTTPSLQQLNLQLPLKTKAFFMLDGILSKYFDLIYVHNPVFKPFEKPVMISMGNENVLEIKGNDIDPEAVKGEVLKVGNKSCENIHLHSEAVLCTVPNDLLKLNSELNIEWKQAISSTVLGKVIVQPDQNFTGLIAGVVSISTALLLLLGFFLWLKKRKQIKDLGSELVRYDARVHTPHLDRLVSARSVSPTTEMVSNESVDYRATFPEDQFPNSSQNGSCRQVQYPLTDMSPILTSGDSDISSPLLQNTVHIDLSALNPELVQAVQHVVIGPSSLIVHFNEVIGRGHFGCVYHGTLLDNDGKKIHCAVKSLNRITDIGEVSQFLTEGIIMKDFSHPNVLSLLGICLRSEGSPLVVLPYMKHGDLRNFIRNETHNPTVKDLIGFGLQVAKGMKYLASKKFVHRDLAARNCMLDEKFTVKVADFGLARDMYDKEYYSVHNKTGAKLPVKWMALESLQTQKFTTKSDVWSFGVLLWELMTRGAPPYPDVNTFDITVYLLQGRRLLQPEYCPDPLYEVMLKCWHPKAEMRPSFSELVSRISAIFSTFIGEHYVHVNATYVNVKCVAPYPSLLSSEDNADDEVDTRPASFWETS
Chain of cMet-Fc fusion protein (P08581 25-307 limits assumed): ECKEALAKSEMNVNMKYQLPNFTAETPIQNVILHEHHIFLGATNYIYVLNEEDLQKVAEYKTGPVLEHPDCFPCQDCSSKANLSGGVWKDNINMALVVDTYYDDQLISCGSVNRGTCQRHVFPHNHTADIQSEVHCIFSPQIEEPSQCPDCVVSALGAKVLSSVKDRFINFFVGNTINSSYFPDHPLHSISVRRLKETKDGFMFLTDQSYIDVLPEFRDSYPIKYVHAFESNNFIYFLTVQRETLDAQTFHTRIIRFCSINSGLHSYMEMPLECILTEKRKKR
Chain of cMet-Fc fusion protein (P08581 with tags, fused parts or gaps limits assumed): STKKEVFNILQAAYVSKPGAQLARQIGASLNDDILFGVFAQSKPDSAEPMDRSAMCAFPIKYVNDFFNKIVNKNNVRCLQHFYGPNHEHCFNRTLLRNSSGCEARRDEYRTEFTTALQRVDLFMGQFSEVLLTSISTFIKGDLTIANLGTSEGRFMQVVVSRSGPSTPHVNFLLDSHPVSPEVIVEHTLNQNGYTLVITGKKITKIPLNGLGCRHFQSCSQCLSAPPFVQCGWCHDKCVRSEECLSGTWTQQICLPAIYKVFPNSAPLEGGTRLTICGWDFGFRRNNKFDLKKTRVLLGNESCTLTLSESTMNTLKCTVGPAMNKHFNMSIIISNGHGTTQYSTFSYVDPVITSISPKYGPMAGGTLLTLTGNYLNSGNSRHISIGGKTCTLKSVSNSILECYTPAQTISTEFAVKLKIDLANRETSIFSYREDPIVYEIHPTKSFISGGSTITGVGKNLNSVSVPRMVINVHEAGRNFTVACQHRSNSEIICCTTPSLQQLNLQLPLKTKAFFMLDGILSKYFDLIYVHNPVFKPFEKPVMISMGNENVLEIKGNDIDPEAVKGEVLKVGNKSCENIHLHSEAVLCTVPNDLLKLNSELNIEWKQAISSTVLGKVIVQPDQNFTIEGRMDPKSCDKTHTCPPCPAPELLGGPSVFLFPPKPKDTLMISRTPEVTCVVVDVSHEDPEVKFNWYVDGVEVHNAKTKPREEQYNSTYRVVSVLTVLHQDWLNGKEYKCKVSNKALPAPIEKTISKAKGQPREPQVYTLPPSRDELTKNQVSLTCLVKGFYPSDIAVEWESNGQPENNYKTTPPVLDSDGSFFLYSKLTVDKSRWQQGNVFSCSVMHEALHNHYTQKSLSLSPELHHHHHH

On to “GSGDPCSPGPSINGHCSVMAP (Synthetically generated cMet-binding peptide sequence) [SEQ ID NO: 382]”, for which the “Protein ELISA” value with cMet-Fc fusion protein is listed as 4.5 fold over background. Moreover, the “WC ELISA” value in assay [1] is recorded as 1.33 fold over background.
“GDSYNCSWDSKTFEVTCLYADP (Synthetically generated cMet-binding peptide sequence) [SEQ ID NO: 393]”: the “Protein ELISA” value in the assay with cMet-Fc fusion protein is given as 8.4 fold over background. Further, the “WC ELISA” value in assay [1] came to 1.20 fold over background.
Take “AGDWICHGPPMFECEWVGT (Synthetically generated cMet-binding peptide sequence) [SEQ ID NO: 058]”: the “Protein ELISA” value with cMet-Fc fusion protein is 15.9 fold over background. Moreover, the “WC ELISA” value in assay [1] stood at 1.17 fold over background.
“AGWTWCDLSMMSCIFHGT (Synthetically generated cMet-binding peptide sequence) [SEQ ID NO: 025]”: the “Protein ELISA” value with cMet-Fc fusion protein amounted to 3.2 fold over background. The “WC ELISA” value in assay [1] was 1.37 fold over background.
“AQGIAWQLEWSYMPQSPPSFDR (Synthetically generated cMet-binding peptide sequence) [SEQ ID NO: 495]”: in the assay with cMet-Fc fusion protein, the “Protein ELISA” value was 4.5 fold over background. Moreover, the “WC ELISA” value in assay [1] is 1.17 fold over background.
Consider “AGFVNCKGPPTFECILTGT (Synthetically generated cMet-binding peptide sequence) [SEQ ID NO: 057]”, for which, in the assay with cMet-Fc fusion protein, the “Protein ELISA” value is recorded as 12.3 fold over background. Moreover, in assay [1], the “WC ELISA” value came out at 1.23 fold over background.
On to `CSCC[C@H](NC(=O)[C@H](CC(=O)O)NC(=O)[C@H](C)NC(=O)[C@H](CC(=O)O)NC(=O)[C@H](CCC(N)=O)NC(=O)[C@H](CC(C)C)NC(=O)[C@H](CCC(=O)O)NC(=O)[C@H](Cc1ccc(O)cc1)NC(=O)[C@H](Cc1ccc(O)cc1)NC(=O)[C@@H]1CCCN1C(=O)[C@H](CCC(N)=O)NC(=O)[C@H](C)NC(C)=O)C(=O)N[C@@H](CC(C)C)C(=O)N[C@@H](CC(C)C)C(=O)N[C@H](C(=O)N[C@H](C(=O)N[C@@H](C)C(=O)N[C@@H](CC(C)C)C(=O)N[C@@H](CC(C)C)C(=O)N[C@@H](CO)C(=O)N[C@H](C(=O)NCC(=O)NCC(=O)NCC(=O)NCC(=O)N[C@@H](CCCCNC(=O)c1ccc2c(c1)C(=O)OC21c2ccc(O)cc2Oc2cc(O)ccc21)C(N)=O)[C@@H](C)O)C(C)C)C(C)C` [SEQ ID NO: 458], for which the “Protein ELISA” value at cMet-Fc fusion protein is listed as 6.1 fold over background. For the same compound, the “WC ELISA” value in assay [1] was 1.20 fold over background.
Taken in the same sequence, the figures for “AQWNQWDEFMWFLNPPPIGLMW (Synthetically generated cMet-binding peptide sequence) [SEQ ID NO: 480]” were 3.3 fold over background and 1.23 fold over background.
For the compound “AGETVCYWLNGWFCVDDGT (Synthetically generated cMet-binding peptide sequence) [SEQ ID NO: 073]”, the “Protein ELISA” value with cMet-Fc fusion protein worked out at 7.8 fold over background. Moreover, in assay [1], the “WC ELISA” value was found to be 1.10 fold over background.
With “AQFDRYWHFAWMDVSFSSGQSG (Synthetically generated cMet-binding peptide sequence) [SEQ ID NO: 465]”, in the assay with cMet-Fc fusion protein, the “Protein ELISA” value is reported as 4.3 fold over background. Also, the “WC ELISA” value in assay [1] turned out to be 1.20 fold over background.
For `CC[C@H](C)[C@H](NC(=O)[C@@H]1CCCN1C(=O)[C@H](Cc1ccc(O)cc1)NC(=O)[C@H](CO)NC(=O)[C@H](CCSC)NC(=O)[C@H](C)NC(=O)[C@H](CC(C)C)NC(=O)[C@H](CCCCN)NC(=O)[C@H](Cc1ccc(O)cc1)NC(=O)[C@H](Cc1c[nH]cn1)NC(=O)[C@H](C)NC(=O)[C@H](CCC(=O)O)NC(=O)[C@@H]1CCCN1C(=O)[C@H](CCCNC(=N)N)NC(=O)[C@H](CCC(N)=O)NC(=O)[C@H](C)NC(C)=O)C(=O)N[C@H](C(=O)N1CCC[C@H]1C(=O)N[C@@H](CCCNC(=N)N)C(=O)N[C@H](C(=O)N[C@@H](CCCCN)C(=O)N[C@H](C(=O)NCC(=O)NCC(=O)NCC(=O)N[C@@H](CCCCNC(=O)c1ccc2c(c1)C(=O)OC21c2ccc(O)cc2Oc2cc(O)ccc21)C(N)=O)[C@@H](C)O)[C@@H](C)O)[C@@H](C)CC` [SEQ ID NO: 452], the “Protein ELISA” value on cMet-Fc fusion protein worked out at 35.3 fold over background. Further, the “WC ELISA” value in assay [1] was determined as 1.37 fold over background.
With “AGWGWCSGPPMFMCTEYGT (Synthetically generated cMet-binding peptide sequence) [SEQ ID NO: 099]”, the “Protein ELISA” value in the assay with cMet-Fc fusion protein was 4.0 fold over background. Further, the “WC ELISA” value in assay [1] worked out at 1.30 fold over background.
Taken in the same sequence, the figures for “AQQWMFQIHQSMAWPYEWIDSY (Synthetically generated cMet-binding peptide sequence) [SEQ ID NO: 494]” were 3.9 fold over background and 1.23 fold over background.
On to “AGWSDCLGPPQFTCVHWGT (Synthetically generated cMet-binding peptide sequence) [SEQ ID NO: 083]”, for which the “Protein ELISA” value in the assay with cMet-Fc fusion protein is 3.9 fold over background. Further, the “WC ELISA” value in assay [1] is 1.33 fold over background.
Taken in the same sequence, the figures for `CC(=O)N[C@@H](C)C(=O)NCC(=O)N[C@@H](Cc1ccc(O)cc1)C(=O)N[C@H](C(=O)N[C@@H](CO)C(=O)N[C@H]1CSSC[C@@H](C(=O)N[C@H](C(=O)N2CCC[C@H]2C(=O)N[C@@H](Cc2ccc(O)cc2)C(=O)NCC(=O)N[C@H](C(=O)NCC(=O)NCC(=O)NCC(=O)N[C@@H](CCCCNC(=O)c2ccc3c(c2)C(=O)OC32c3ccc(O)cc3Oc3cc(O)ccc32)C(N)=O)[C@@H](C)O)[C@@H](C)O)NC(=O)[C@H](CCC(=O)O)NC(=O)[C@H](Cc2ccccc2)NC(=O)[C@H](CO)NC(=O)[C@@H]2CCCN2C(=O)[C@@H]2CCCN2C(=O)CNC(=O)[C@H](C(C)C)NC1=O)[C@@H](C)O` [SEQ ID NO: 059] were 21.2 fold over background and 1.43 fold over background.
Take “GSMNMCDTTDEISPTCHPSAP (Synthetically generated cMet-binding peptide sequence) [SEQ ID NO: 378]”: in the assay with cMet-Fc fusion protein, the “Protein ELISA” value was 3.6 fold over background. Besides, the “WC ELISA” value in assay [1] is 1.40 fold over background.
With “AGSYWCSGPPTFMCRYEGT (Synthetically generated cMet-binding peptide sequence) [SEQ ID NO: 085]”, the “Protein ELISA” value in the assay with cMet-Fc fusion protein was determined as 17.1 fold over background. In assay [1], the “WC ELISA” value is reported as 1.27 fold over background.
With `CC[C@H](C)[C@H](NC(=O)[C@H](CO)NC(=O)CNC(=O)[C@H](C)NC(C)=O)C(=O)N[C@@H](CCC(N)=O)C(=O)N[C@H]1CSSC[C@@H](C(=O)N[C@@H](C)C(=O)N[C@@H](CCSC)C(=O)N[C@@H](Cc2ccc(O)cc2)C(=O)NCC(=O)N[C@H](C(=O)NCC(=O)NCC(=O)NCC(=O)N[C@@H](CCCCNC(=O)c2ccc3c(c2)C(=O)OC32c3ccc(O)cc3Oc3cc(O)ccc32)C(N)=O)[C@@H](C)O)NC(=O)[C@H](CO)NC(=O)[C@H](Cc2ccccc2)NC(=O)[C@H](Cc2c[nH]c3ccccc23)NC(=O)[C@@H]2CCCN2C(=O)[C@@H]2CCCN2C(=O)CNC(=O)[C@H](CCCCN)NC1=O` [SEQ ID NO: 048], on cMet-Fc fusion protein, the “Protein ELISA” value is 15.9 fold over background. In addition, in assay [1], the “WC ELISA” value is on record as 1.47 fold over background.
On to `CC[C@H](C)[C@H](NC(=O)[C@@H](NC(=O)[C@H](CCC(=O)O)NC(=O)CNC(=O)[C@H](Cc1c[nH]c2ccccc12)NC(=O)[C@H](Cc1c[nH]cn1)NC(=O)[C@@H](NC(=O)[C@H](CC(C)C)NC(=O)CNC(=O)[C@H](CC(=O)O)NC(=O)[C@H](Cc1c[nH]cn1)NC(=O)[C@@H]1CCCN1C(=O)[C@H](Cc1c[nH]c2ccccc12)NC(=O)[C@H](CCC(N)=O)NC(=O)[C@H](C)NC(C)=O)C(C)C)C(C)C)C(=O)N[C@@H](CCSC)C(=O)N[C@@H](CC(C)C)C(=O)N[C@@H](CCCNC(=N)N)C(=O)N[C@@H](Cc1ccccc1)C(=O)NCC(=O)NCC(=O)NCC(=O)N[C@@H](CCCCNC(=O)c1ccc2c(c1)C(=O)OC21c2ccc(O)cc2Oc2cc(O)ccc21)C(N)=O` [SEQ ID NO: 479], for which the “Protein ELISA” value at cMet-Fc fusion protein is reported as 3.3 fold over background. The “WC ELISA” value in assay [1] is on record as 1.37 fold over background.
“AQFSGLVMYGRTHEVQWTFGSM (Synthetically generated cMet-binding peptide sequence) [SEQ ID NO: 477]”: in the assay with cMet-Fc fusion protein, the “Protein ELISA” value was found to be 3.5 fold over background. In assay [1], the “WC ELISA” value is 1.30 fold over background.
For “AGFWDCGWMMQDCHMHGT (Synthetically generated cMet-binding peptide sequence) [SEQ ID NO: 045]”, the “Protein ELISA” value with cMet-Fc fusion protein is given as 3.9 fold over background. Further, in assay [1], the “WC ELISA” value is reported as 1.33 fold over background.
For the compound “AGHGTCRGWPTFECIYFGT (Synthetically generated cMet-binding peptide sequence) [SEQ ID NO: 064]”, the “Protein ELISA” value with cMet-Fc fusion protein was determined as 6.0 fold over background. Moreover, the “WC ELISA” value in assay [1] was determined as 1.40 fold over background.
Turning to “AGPLFCFEWPSLCHWGGT (Synthetically generated cMet-binding peptide sequence) [SEQ ID NO: 033]”, in the assay with cMet-Fc fusion protein, the “Protein ELISA” value was determined as 3.8 fold over background. Moreover, the “WC ELISA” value in assay [1] was found to be 1.43 fold over background.
“AGYWHCKGPPHFACEFHGT (Synthetically generated cMet-binding peptide sequence) [SEQ ID NO: 077]”: the “Protein ELISA” value with cMet-Fc fusion protein is 5.5 fold over background. Besides, the “WC ELISA” value in assay [1] is recorded as 1.40 fold over background.
With “AGHTICQHKALGCPANGT (Synthetically generated cMet-binding peptide sequence) [SEQ ID NO: 041]”, in the assay with cMet-Fc fusion protein, the “Protein ELISA” value is listed as 3.1 fold over background. Moreover, the “WC ELISA” value in assay [1] is recorded as 1.27 fold over background.
